Data taken from patent publication US20250352624A1, “SUPEROXIDE DISMUTASE AND USES THEREOF FOR PREVENTING OR TREATING DRY EYE SYNDROME” (GENOFOCUS, INC., priority 2021, published 2025).

How the values were obtained:
[1] = tested on: experimental dry eye (EDE)-induced C57BL/6 mouse model; experiment: CD4+IFN-γ+ T cells by flow cytometry; assay type: in vivo
Method: (§1) To induce experimental dry eye, 7- to 8-week-old C57BL/6 mice (purchased from Damool Science) were injected subcutaneously with scopolamine hydrochloride at 0.5 mg/0.2 ml three times a day under exposure to a ventilating device for 18 hours a day. The humidity was maintained at 30%, and the temperature was maintained at 25° C. The C57BL/6 mice were classified into 7 groups, depending on concentrations of the oral drug to be administered, as shown in Table 6.
After inducing experimental dry eye in the experimental mice, the drugs prepared in Example 3 were orally administered at 2 μL per dose once a day to the treatment groups (administered at 13:30 every day). In both eyes of all mice, at baseline, day 5, and day 10, tear volume and tear film break-up time were measured and corneal fluorescent staining score was examined. The mice were then sacrificed and tissue analysis was performed. Each group consisted of 6 animals.
The cornea, conjunctiva, and lacrimal gland were excised, sectioned with scissors, and then shaken with 0.5 mg/mL of collagenase type D (manufactured by Roche Applied Science, Indianapolis, IN, USA) at 37° C. for 60 minutes. The tissue was ground and then allowed to pass through a cell strainer, followed by centrifugation. The number of CD4+IFN-γ+T cells was calculated by performing flow cytometry with fluorescein-conjugated anti-CD4 antibody and phycoerythrin-conjugated anti-IFN-γ antibody, and the number of DCF-DA cells was calculated using the CM-H2DCFDA kit (manufactured by Thermo Fisher Scientific, Waltham, MA, USA).

[2] = tested on: experimental dry eye (EDE)-induced C57BL/6 mouse model; experiment: Inflammatory cytokines by Luminex multiplex immunobead assay; assay type: in vivo
Method: as §1
In both eyes of all mice, at baseline, day 5, and day 10, tear volume and tear film break-up time were measured and corneal fluorescent staining score was examined. The mice were then sacrificed and tissue analysis was performed. Each group consisted of 6 animals.
Conjunctival tissue was excised and collected from 6 eyes of 3 animals in each group, and then immersed in lysis buffer containing protease inhibitors for 30 minutes. Subsequently, the resultant was centrifuged and stored −80° C. Then, the concentrations of IFN-γ, IL-1Bβand TNF-α in the cornea and conjunctiva were analyzed using the Luminex multiplex immunobead assay.

[3] = conjunctiva, 2.5 mg/kg oral once a day
[4] = conjunctiva, 5 mg/kg oral once a day
[5] = conjunctiva, 10 mg/kg oral once a day
[6] = cornea and conjunctiva, CsA and oral SodA2 groups
[7] = cornea, 2.5 mg/kg oral once a day
[8] = cornea, 5 mg/kg oral once a day
[9] = cornea, 10 mg/kg oral once a day

B1: SodA2: variant Mn-SOD of Bacillus amyloliquefaciens GF423 sodA, Asn73 and Asn136 replaced with Asp, SEQ ID NO: 4; given orally shellac-coated, mixed with dextrin (protein, listed as Bacillus amyloliquefaciens)
chain: MAYKLPELPYAYDALEPHIDKETMTIHHTKHHNTYVTNLNKAIEGSALAEKSVDELVADLNAVPEDIRTAVRDDGGGHANHSLFWTLLSPNGGGEPTGELAEEIKSTFGSFDQFKEKFAAAAAGRFGSGWAWLVVDDGKLEITSTPNQDSPLSEGKTPVLGLDVWEHAYYLNYQNRRPDYISAFWNVVNWDEVARLYSEAK
modifications: shellac coating; dextrin mixture
[1]; [3]
  proportion of CD4+IFN-γ+T cells: 21.00±0.63%
[1]; [4]
  proportion of CD4+IFN-γ+T cells: 22.87±2.47%
[1]; [5]
  proportion of CD4+IFN-γ+T cells: 25.83±0.27%
[1]; [6]
  proportion of CD4+IFN-γ+T cells as compared with the EDE and vehicle groups: significant decrease
[1]; cornea, 2.5 mg/kg oral
  proportion of CD4+IFN-γ+T cells as compared with the 0.05% CsA group: significantly lower
[1]; [7]
  proportion of CD4+IFN-γ+T cells: 21.18±0.15%
[1]; [8]
  proportion of CD4+IFN-γ+T cells: 23.87±0.17%
[1]; [9]
  proportion of CD4+IFN-γ+T cells: 30.24±1.33%
[2]; [3]
  IFN-γ: 21.27 ± 17.49 pg/mL
  IL-1β: 21.5 ± 9.26 pg/mL
  TNF-α: 22.6 ± 7.72 pg/mL
[2]; [4]
  IFN-γ: 18.28 ± 11.75 pg/mL
  IL-1β: 19.0 ± 7.17 pg/mL
  TNF-α: 18.8 ± 11.6 pg/mL
[2]; [5]
  IFN-γ: 15.53 ± 11.43 pg/mL
  IL-1β: 16.3 ± 9.12 pg/mL
  TNF-α: 22.5 ± 11.4 pg/mL
[2]; [6]
  concentrations of IFN-γ, IL-1β, and TNF-α as compared with the EDE and vehicle groups: tendency of decreased concentrations
[2]; [7]
  IFN-γ: 10.77 ± 8.30 pg/mL
  IL-1β: 15.45 ± 8.93 pg/mL
  TNF-α: 22.6 ± 7.72 pg/mL
[2]; [8]
  IFN-γ: 9.80 ± 6.11 pg/mL
  IL-1β: 13.17 ± 2.26 pg/mL
  TNF-α: 18.8 ± 11.6 pg/mL
[2]; [9]
  IFN-γ: 7.89 ± 7.90 pg/mL
  IL-1β: 8.69 ± 4.18 pg/mL
  TNF-α: 22.5 ± 11.4 pg/mL
[2]; oral, all doses
  inflammatory cytokines as compared with CsA: tended to decrease inflammatory cytokines more than CsA
